From US10472652B2, “Chemical engineering processes and apparatus for the synthesis of compounds” (TEEWINOT T[…], priority 2013, dated 2019)

Experiments:
Format in all cases: biochemical
[1] = biological target: T1, THCA synthase (Cannabis sativa, UniProt Q8GTB6); test: effect of concentration of non-aqueous solvent (DMSO) on THCA synthase catalytic rate and THCA:CBCA product ratio
T1 construct: His-tag (C); made in house; host or cells: Pichia pastoris (PichiaPink, pPink-HC vector), secreted into the medium; cell-free T3 supernatant used
T1 sequence (Q8GTB6 29-545): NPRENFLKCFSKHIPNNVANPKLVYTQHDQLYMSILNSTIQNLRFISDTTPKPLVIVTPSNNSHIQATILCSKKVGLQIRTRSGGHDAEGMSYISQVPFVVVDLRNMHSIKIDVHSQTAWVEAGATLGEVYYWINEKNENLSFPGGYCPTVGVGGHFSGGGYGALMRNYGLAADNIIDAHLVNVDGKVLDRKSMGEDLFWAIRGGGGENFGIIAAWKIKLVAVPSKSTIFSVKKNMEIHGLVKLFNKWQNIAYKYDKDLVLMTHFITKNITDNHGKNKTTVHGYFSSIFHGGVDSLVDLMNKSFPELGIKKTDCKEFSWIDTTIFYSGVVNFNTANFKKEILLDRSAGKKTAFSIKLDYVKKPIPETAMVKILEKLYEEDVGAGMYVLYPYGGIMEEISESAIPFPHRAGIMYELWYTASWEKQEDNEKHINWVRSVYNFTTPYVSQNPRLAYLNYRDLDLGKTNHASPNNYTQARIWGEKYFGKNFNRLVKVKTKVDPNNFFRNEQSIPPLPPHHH
Experimental: Accordingly, the effects of temperature, pH, solvent, ionic strength and incubation times on the distribution ratio of THCA to CBCA products were studied. In one embodiment, the effect of solvent on product distribution ratio was evaluated. Cannabinoids are lipohilic in nature and are poorly solubilized in aqueous solvents. The poor solubility of cannabinoids in aqueous solvent has prevented the development of ex-vivo enzyme catalyzed methodologies for the synthesis of cannabinoids and cannabinoid analogs.
The catalytic rate […] slightly as concentration of the non-aqueous solvent is increased. Thus, 20% DMSO gave the highest catalytic rate, approximately 2.5-fold faster than catalysis in buffer alone. Table 1 illustrates the effect of concentration of non-aqueous solvent on the rate of catalytic activity.
As further illustrated in this table, the concentration of non-aqueous solvent can alter the ratio of THCA to CBCA produced as product. Thus, greater levels of THCA are obtained when the concentration of DMSO in buffer is less that 20%, with a THCA:CBCA distribution ratio of 10:1 observed when 10% DMSO is used as the solvent.

[2] = biological target: T1, THCA synthase; test: pH study: ratio of THCA to CBCA produced when THCA synthase is contacted with CBGA
Experimental: Table 3 illustrates the results of a pH study that was aimed at identifying the effect of pH on product ratio, namely, the ratio of THCA to CBCA compounds produced when THCA synthase is contacted with CBGA as substrate. The pH of the reaction mixture in this study ranged from a pH of 4.0 to 8.0.
In fact, THCA is the major product when catalysis is carried out at a pH of 4.0. Increasing the pH of the reaction mixture altered the product distribution ratio with approximately 30% CBCA being produced as product at a pH of 5.0 and around […] CBCA being produced as product at a pH value of 6.0. A further increase in pH of the reaction mixture, such as an increase of the pH of the reaction mixture to a pH of 7.0 gave CBCA exclusively as the product of THCA synthase catalyzed conversion of CBGA. Any further increases in pH, moreover, reduced or eliminated catalytic activity of THCA synthase, with no product observed for a reaction mixture at a pH of 8.0.

[3] = biological target: T1, THCA synthase; test: effect of detergent SDS on THCA synthase conversion of CBGA; details: SDS added to 100 mM citrate buffer containing cyclodextrin
Experimental: In contrast, addition of SDS to 100 mM citrate buffer containing cyclodextrin destroyed THCA synthases ability to catalyze reaction. Only 8% of the substrate was converted to product under these reaction conditions with the formation of THCA being favored as product under these reaction conditions.

B1: THCA synthase: recombinant His-tagged tetrahydrocannabinolic acid synthase secreted by transformed Pichia pastoris yeast cells (protein, UniProt Q8GTB6 29-545, looked up)
Tetrahydrocannabinolic acid …: T1 sequence (Q8GTB6 29-545)
modifications: His tag
notes: recombinant His-tagged tetrahydrocannabinolic acid synthase secreted by transformed Pichia pastoris yeast cells
B1 was tested, and the “FASTER (catalytic rate relative to buffer alone)” value ([1]; DMSO 0%) was 1X, the “FASTER (catalytic rate relative to buffer alone)” value ([1]; DMSO 10%) was 1.2X and the “FASTER (catalytic rate relative to buffer alone)” value ([1]; DMSO 30%) was 0.3X. The “CBCA (share of product)” value ([2]; pH 4, substrate CBGA) was “Trace”, the “THCA (share of product)” value ([2]; pH 4, substrate CBGA) was 100% and the “THCA (share of product)” value ([2]; pH 5, substrate CBGA) was 70%. The “THCA (share of product)” value ([2]; pH 6, substrate CBGA) was 85%, the “CBCA (share of product)” value ([2]; pH 7, substrate CBGA) was 100% and the “THCA (share of product)” value ([2]; pH 7, substrate CBGA) was 0%. For the same molecule, the “CBCA (share of product)” value ([2]; pH 8, substrate CBGA) was 0%, the “THCA (share of product)” value ([2]; pH 8, substrate CBGA) was 0% and the “substrate converted to product” value [3] was 8%.
